According to article PMC7477745:

Target: CD2 (human (endogenous in primary CD8+ T cells)) (UniProt P06729)
UniProt P06729, sequence (P06729 25-351): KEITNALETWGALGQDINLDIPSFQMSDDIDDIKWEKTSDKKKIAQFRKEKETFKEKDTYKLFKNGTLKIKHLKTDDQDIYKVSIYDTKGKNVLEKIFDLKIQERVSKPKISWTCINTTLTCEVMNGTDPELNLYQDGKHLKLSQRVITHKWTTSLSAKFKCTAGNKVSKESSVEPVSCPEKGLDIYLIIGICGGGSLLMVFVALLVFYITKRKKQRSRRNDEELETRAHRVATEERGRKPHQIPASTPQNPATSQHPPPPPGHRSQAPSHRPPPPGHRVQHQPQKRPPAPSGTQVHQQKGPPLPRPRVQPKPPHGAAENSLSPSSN

Question: Which efficacy (Emax) of cytokine production (TNF-α, IFN-γ, IL-2; ELISA) by c58c61-TCR CD8+ T cell blasts on plate-immobilised pMHC with a titration of coimmobilised CD58, 8 h does the source give for “extracellular part of human CD58 (aa 29–213) (from UniProt P19256 29-213) (ligand)” here?
Answer: > 10 fold

Question: And the potency (EC50 of pMHC) of cytokine production (TNF-α, IFN-γ, IL-2; ELISA) by c58c61-TCR CD8+ T cell blasts on plate-immobilised pMHC with a titration of coimmobilised CD58, 8 h?
Answer: 50 fold
